In patent publication US7341992B2, “Lectin-like domain of thrombomodulin and its therapeutic use” (Vlaams Interuniversitair Instituut Voor Biotechnologie VZW, priority 2001, dated 2008):
“Also recorded” adds a separate entry of the source.

What was measured:
[1] = system: fEND.5 cells; test: Static adhesion assay: human neutrophils on activated fEND.5 cells; format: cell-based, murine endothelial cell line; conditions: for LPS-induced adhesion of human neutrophils to fEND.5 cells (effect in words) / PMN Adhesion to LPS-stimulated fEND.5 Cells, Mean: LPS 20 μg/ml 3 hrs; for PMN Adhesion to LPS-stimulated fEND.5 Cells, Mean / PMN Adhesion to TNF-stimulated fEND.5 Cells, Mean: human neutrophils 50,000 per well; for TNF-induced adhesion of human neutrophils to fEND.5 cells (effect in words) / PMN Adhesion to TNF-stimulated fEND.5 Cells, Mean: TNFα 200 U/ml 3 hrs
Experimental: Static adhesion assays using human neutrophils (50,000 per well) and confluent fEND.5 cells in 24-well plates were performed exactly as described (see below—Methods section 11). Where noted, TNFα (200 U/ml) or LPS 20 μg/ml, were used to activate the fEND.5 cells for 3 hrs. PMNs were co-incubated with one of the recombinant human TM fragments 1, 2 or 4, (SEQ ID NO 1, 2, 4) or with HPLC-purified peptides representing human TM fragments 3,6 or 7 (SEQ ID NO 3, 6, 7). Tables 11-17 show results, where the amount of recombinant fragment in μg is shown on the bar graphs, and * indicates p<0.05 as compared with buffer control (i.e. without recombinant protein) under the same conditions. In all cases, appropriate controls were used for comparisons.
(§1) Endothelial cells were plated in 24-well dishes and grown to confluence. Following 2 washes of the cell monolayers with HBSS, freshly prepared BCECF-AM-labeled, neutrophils derived from human peripheral blood, or murine bone marrow-derived PMNs or lymphocytes 50,000 per well, were added in a final volume of 1 ml for 30 minutes at room temperature. The media was decanted and the cell monolayers were gently washed three times with HBSS after which the adherent fluorescently labeled leukocytes were counted with an inverted epiflourescence microscope as described above.

[2] = system: HUVECs; test: Rescue of HUVECs from serum starvation-induced cell death; format: cell-based, human; conditions: 3 days of serum deprivation
Experimental: Because endothelial cell death is a pathway of sustained tissue damage, we evaluated whether TMlec155 was capable of rescuing HUVECs from serum starvation-induced cell death. After 3 days of serum deprivation, over 95% of HUVECs died. Serum starvation with the addition of TMlec155 at concentrations of 1, 10 and 20 μg/ml rescued 2±0.6%, 18±7% and 34±14% of the cells (p=0.69, p<0.05, p<0.05, respectively compared with serum-starved controls), showing that soluble TM rnay also have pro-survival properties.

[3] = system: TM^LeD/LeD endothelial cells; test: Static adhesion assay: murine PMNs on endothelial cells from TM^LeD/LeD mice; format: cell-based; conditions: for PMN Adhesion (# per 15 HPFs): PMNs from wild-type mice
Experimental: Constitutive levels of circulating soluble TM, composed of proteolytic components of the extracellular domains, are found in the plasma of normal individuals, while quantitative changes occur in different disease states. Purified recombinant TMlec155 was prepared using the Pichia pastoris expression system, and further purified by a series of chromatographic steps as detailed in the methods. In a static adhesion assay on TM^Led/Led endothelial cells, PMNs were co-incubated with TMlec155 at two concentrations. Adhesion of PMNs to the resting endothelial cells was, as before, increased as compared with adhesion to wild-type endothelial cells (Table 9). […] The degree of suppression of adhesion was almost to the level of adhesion to wild-type endothelial cells. […] The role of recombinant TMlec155 in vivo was tested by injecting wild-type mice with LPS 20 μg/gm i.p., followed 5 minutes later with an intravenous bolus of recombinant TMlec155 or buffer alone. After a further 3 hours, the serum cytokine response was determined.
Endothelial tumors were induced to grow in 7 day old mice following intraperitoneal (i.p.) injection of retrovirus carrying the middle T antigen of murine Polyomavirus (PymT). After 10-14 days, the tumors were excised, and endothelial cells were isolated^32.33. Primary cultures of lymphatic endothelial cells were isolated from intraperitoneal lymphangiomas, growth of which was induced by injection of incomplete Freund's adjuvant exactly as described^34. Cells were cultured on collagen or gelatin coated plates in M199 media supplemented with 20% fetal bovine serum, porcine heparin 0.1 mg/ml, endothelial cell mitogen 5 μg/ml (Biomedical Technologies Inc., Stoughton, Mass.), 100 μg/ml penicillin and streptomycin 100 μg/ml. Cell cultures were incubated at 37° C. in a humidified atmosphere of 5% CO2 and 95% air, and experiments were performed at passage 3-8. Over 95% of the cells immuno-stained positively for TM and vWF, confirming the endothelial origin and purity.
Neutrophils and lymphocytes were isolated from bone marrow according to the method of Lowell and Berton ^35. Each population was assessed to be over 95% pure by microscopic analysis after Wright staining.
as §1

[4] = system: IL-1β; test: Cytokine response in vivo after LPS i.p. in wild-type mice; conditions: LPS 20 μg/gm i.p.
Experimental: Table 10: Effect of recombinant TMlec155 on cytokine response in vivo. Wild-type mice were treated with LPS 20 μg/gm i.p., following 5 min later with the noted treatment. Plasma levels of IL-1b were measured 3 hours later
Constitutive levels of circulating soluble TM, composed of proteolytic components of the extracellular domains, are found in the plasma of normal individuals, while quantitative changes occur in different disease states. Purified recombinant TMlec155 was prepared using the Pichia pastoris expression system, and further purified by a series of chromatographic steps as detailed in the methods. In a static adhesion assay on TM^Led/Led endothelial cells, PMNs were co-incubated with TMlec155 at two concentrations. […] After a further 3 hours, the serum cytokine response was determined.
Double antibody sandwich ELISA kits, purchased from R & D Systems Europe (Abingdon, UK), were used to quantitate murine plasma levels of TNFα, IL-1β, IL-6 and IL-10. […] A sensitive and specific radioimmunoassay to quantitate plasma levels of murine FPA was performed as previously reported^24.
Lipopolysaccharide (LPS) from Escherichia coli serotype 0111:B4 (Sigma) was injected intraperitoneally into 10-12 week old mice. For lethality studies, animals were closely monitored each day until either recovery or cessation of breathing. […]

[5] = system: pERK1/2 and NFκB; test: TNFα-induced pERK1/2 and NFκB in HUVECs; format: cell-based, human; conditions: TNFα 200 U/ml for 20 minutes
Experimental: We predicted that soluble lectin-like domain of TM would suppress PMN adhesion by altering regulation of MAP kinase pathways in ECs. Therefore, HUVECs were exposed to TNFα (200 U/ml) for 20 minutes. […] Total ERK1/2 levels remained unchanged.

Row | Molecule | LPS-induced adhesion of human neutrophils to fEND.5 cells (effect in words) [1] | PMN Adhesion to LPS-stimulated fEND.5 Cells, Mean ([1]; 1 μg of fragment) | PMN Adhesion to LPS-stimulated fEND.5 Cells, Mean ([1]; 5 μg of fragment) | PMN Adhesion to LPS-stimulated fEND.5 Cells, Mean ([1]; 8 μg of fragment) | PMN Adhesion to LPS-stimulated fEND.5 Cells, Mean ([1]; 15 μg of fragment) | TNF-induced adhesion of human neutrophils to fEND.5 cells (effect in words) [1] | further results
1 | pept n^o 23: HPLC-purified peptide, amino acids 84-97 of SEQ ID NO: 1 (human TM) | significantly suppressed | 31.015 | 21.535 | – | – | – | –
2 | pept. N^o 24: HPLC-purified peptide, amino acids 3-33 of SEQ ID NO: 1 (human TM) (PQPGGSQCVEHDCFALYPGPATFLNASQICD; PEPTIDE (1)...(31) Human thrombomodulin fragment 3; listed as Homo sapiens) | significantly suppressed | 38.830 | 44.019 | 22.000 | – | – | –
3 | TMlec155: Recombinant first 155 amino acids of murine TM, restricted to the lectin-like region, polyhistidine-tagged, expressed in Pichia pastoris (protein, left off: small tags and cut ends, Recombinant first 155 amino acids of murine TM, restricted to the lectin-like region, polyhistidine-tagged, expressed in Pichia pastoris) LSALAKLQPTGSQCVEHECFALFQGPATFLDASQACQRLQGHLMTVRSSVAADVISLLLSQSSMDLGPWIGLQLPQGCDDPVHLGPLRGFQWVTGDNHTSYSRWARPNDQTAPLCGPLCVTVSTATEAAPGEPAWEEKPCETETQGFLCEFYFTA | – | – | – | – | – | – | cells rescued from serum starvation-induced cell death ([2]; 1 μg/ml): 2±0.6%; cells rescued from serum starvation-induced cell death ([2]; 10 μg/ml): 18±7%; cells rescued from serum starvation-induced cell death ([2]; 20 μg/ml): 34±14%; PMN Adhesion (# per 15 HPFs) ([3]; TM^LeD/LeD + TNF endothelial cells, recombinant TMlec155 3.6 mg): 132 ± 90 # per 15 HPFs; PMN Adhesion (# per 15 HPFs) ([3]; TM^LeD/LeD + TNF endothelial cells, recombinant TMlec155 7.2 mg): 153 ± 106 # per 15 HPFs; PMN Adhesion (# per 15 HPFs) ([3]; resting TM^LeD/LeD endothelial cells, recombinant TMlec155 3.6 mg): 15 ± 6 # per 15 HPFs; PMN Adhesion (# per 15 HPFs) ([3]; resting TM^LeD/LeD endothelial cells, recombinant TMlec155 7.2 mg): 12 ± 7 # per 15 HPFs; Adhesion of PMNs to TNFα-activated TM^Led/Led endothelial cells (effect in words) ([3]; static adhesion assay, PMNs co-incubated with TMlec155): significantly reduced; Adhesion of PMNs to resting TM^Led/Led endothelial cells (effect in words) ([3]; static adhesion assay, PMNs co-incubated with TMlec155 at two concentrations): significantly decreased; also recorded: abrogated; also recorded: significant decrease in adhesion; IL-1β levels (effect in words) ([4]; i.v. bolus 5 minutes later, 3 hours, compared with control): significantly suppressed; IL-1β ([4]; treatment i.v. bolus 5 min later, plasma 3 hours later): 286 ± 75 ng/mL; Accumulation of NFκB [5]: similarly interfered; Accumulation of pERK1/2 [5]: similarly interfered
4 | pr. 680 bp: Recombinant human TM fragment, amino acids 1 to 224 of the mature protein, entire N-terminal domain, expressed in Pichia pastoris (protein, listed as Homo sapiens, PEPTIDE (1)...(224) Human thrombomodulin fragment 1, Recombinant human TM fragment, amino acids 1 to 224 of the mature protein, entire N-terminal domain, expressed in Pichia pastoris) AEPQPGGSQCVEHDCFALYPGPATFLNASQICDGLRGHLMTVRSSVAADVISLLLNGDGGVGRRRLWIGLQLPPGCGDPKRLGPLRGFQWVTGDNNTSYSRWARLDLNGAPLCGPLCVAVSAAEATVPSEPIWEEQQCEVKADGFLCEFHFPATCRPLAVEPGAAAAAVSITYGTPFAARGADFQALPVGSSAAVAPLGLQLMCTAPPGAVQGHWAREAPGAWD | significantly suppressed | – | 29.403 | 24.292 | 18.333 | significantly suppressed | PMN Adhesion to TNF-stimulated fEND.5 Cells, Mean ([1]; 5 μg of fragment): 85.656; PMN Adhesion to TNF-stimulated fEND.5 Cells, Mean ([1]; 10 μg of fragment): 24.303
5 | pr. 480 bp: Recombinant human TM fragment, amino acids 1 to 157 of the mature protein, expressed in Pichia pastoris (protein, listed as Homo sapiens, PEPTIDE (1)...(157) Human thrombomodulin fragment 2, Recombinant human TM fragment, amino acids 1 to 157 of the mature protein, expressed in Pichia pastoris) AEPQPGGSQCVEHDCFALYPGPATFLNASQICDGLRGHLMTVRSSVAADVISLLLNGDGGVGRRRLWIGLQLPPGCGDPKRLGPLRGFQWVTGDNNTSYSRWARLDLNGAPLCGPLCVAVSAAEATVPSEPIWEEQQCEVKADGFLCEFHFPATCRP | significantly suppressed | – | 27.68 | 25.50 | 19.01 | – | –
6 | pr. 400 bp: Recombinant human TM fragment, amino acids 33 to 159 of the mature protein, expressed in Pichia pastoris (protein, listed as Homo sapiens, PEPTIDE (1)...(127) Human thrombomodulin fragment 4, Recombinant human TM fragment, amino acids 33 to 159 of the mature protein, expressed in Pichia pastoris) DGLRGHLMTVRSSVAADVISLLLNGDGGVGRRRLWIGLQLPPGCGDPKRLGPLRGFQWVTGDNNTSYSRWARLDLNGAPLCGPLCVAVSAAEATVPSEPIWEEQQCEVKADGFLCEFHFPATCRPLA | suppressed | – | 33.642 | 29.725 | – | suppressed | PMN Adhesion to TNF-stimulated fEND.5 Cells, Mean ([1]; 8 μg of fragment): 53.417; PMN Adhesion to TNF-stimulated fEND.5 Cells, Mean ([1]; 20 μg of fragment): 63.500
